Results reported in US20180371091A1 (JOUNCE THERAPEUTICS, published 2018).

Columns and labels:
[1] = target: T1, human ICOS (full length, on cells) (human, UniProt Q9Y6W8 21-199); assay: cell-based ELISA on fixed, permeabilised CHO cells expressing human ICOS, chemiluminescence (RLU)
T1 construct: also called CHO-hICOS; human ICOS+ CHO cells
T1 sequence: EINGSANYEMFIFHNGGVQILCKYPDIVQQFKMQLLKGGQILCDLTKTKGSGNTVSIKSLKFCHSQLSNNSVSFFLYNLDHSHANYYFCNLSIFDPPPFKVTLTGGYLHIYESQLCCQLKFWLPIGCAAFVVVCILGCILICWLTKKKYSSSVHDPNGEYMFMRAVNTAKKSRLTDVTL
Experimental: Chinese Hamster ovary (CHO) cells stably transfected with ICOS overexpressing plasmid (CHO-ICOS) or control plasmid (CHO-vector) were used to screen positive clones from the peptide ELISA assay using established protocols. Briefly, cells grown in 96 well plates were fixed and permeabilized using 10% formalin with 0.1% Triton X-100. Following blocking, cells were incubated with primary antibody, followed by HRP-conjugated anti-mouse antibody. Detection was carried out using chemiluminescence substrate. Commercial anti-ICOS antibody, SP98 (Spring Biosciences) was used as a positive control and mouse IgG1 was used as a negative control for the assay.

[2] = target: T2, mouse BTLA Fc fusion (dimeric) (mouse, UniProt Q7TSA3 30-183); assay: binding to dimeric Fc fusions of CD28 family members
T2 construct: not shown: Fc part not described
T2 sequence (looked up): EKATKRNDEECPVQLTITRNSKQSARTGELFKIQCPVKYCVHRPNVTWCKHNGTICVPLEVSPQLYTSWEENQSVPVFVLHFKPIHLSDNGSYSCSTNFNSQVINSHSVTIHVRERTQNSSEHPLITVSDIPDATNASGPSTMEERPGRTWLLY
Experimental: (§1) To further assess the specificity of the anti-ICOS antibodies, the antibodies were screened for binding to additional members of the CD28 protein family (CD28, BTLA, PD-1 and CTLA-4). […] Specifically, binding to Fc fusions (of CD28, BTLA, PD-1 and CTLA-4) in dimeric forms was evaluated, and no binding was observed. For a subset of the CD28 family members, mouse or human protein was over-expressed on the surface of HEK293 and CHOK1 cells. No binding of antibody above background relative to untransduced parental cells was observed.

[3] = target: T3, human BTLA Fc fusion (dimeric) (human, UniProt Q7Z6A9 31-157); assay: as above
T3 construct: not shown: Fc part not described
T3 sequence (looked up): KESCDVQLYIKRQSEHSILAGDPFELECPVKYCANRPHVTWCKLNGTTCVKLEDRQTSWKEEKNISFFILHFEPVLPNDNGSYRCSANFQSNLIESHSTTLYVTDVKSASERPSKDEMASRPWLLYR
Experimental: as §1

[4] = target: T4, mouse PD-1 Fc fusion (dimeric) (mouse, UniProt Q02242 25-167); assay: as above
T4 construct: not shown: Fc part not described
T4 sequence (looked up): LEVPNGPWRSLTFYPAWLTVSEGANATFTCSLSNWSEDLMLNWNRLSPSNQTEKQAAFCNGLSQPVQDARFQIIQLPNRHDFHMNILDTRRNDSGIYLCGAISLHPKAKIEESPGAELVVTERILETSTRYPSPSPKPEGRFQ
Experimental: as §1

[5] = target: T5, mouse CTLA-4 Fc fusion (dimeric) (mouse, UniProt P09793 36-162); assay: as above
T5 construct: not shown: Fc part not described
Experimental: as §1

[6] = target: T6, human PD-1 Fc fusion (dimeric) (human, UniProt Q15116 25-167); assay: as above
T6 construct: not shown: Fc part not described
Experimental: as §1

[7] = target: T7, human CD28 Fc fusion (dimeric) (human, UniProt P10747 19-152); assay: as above
T7 construct: not shown: Fc part not described
Experimental: as §1

[8] = target: T8, mouse CD28 Fc fusion (dimeric) (mouse, UniProt P31041 20-150); assay: as above
T8 construct: not shown: Fc part not described
T8 sequence (looked up): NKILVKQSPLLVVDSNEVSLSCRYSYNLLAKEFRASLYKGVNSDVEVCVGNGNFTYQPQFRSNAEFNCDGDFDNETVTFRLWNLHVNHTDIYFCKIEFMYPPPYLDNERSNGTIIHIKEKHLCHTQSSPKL
Experimental: as §1

[9] = target: T9, human CTLA-4 Fc fusion (dimeric) (human, UniProt P16410 37-162); assay: as above
T9 construct: not shown: Fc part not described
T9 sequence (looked up): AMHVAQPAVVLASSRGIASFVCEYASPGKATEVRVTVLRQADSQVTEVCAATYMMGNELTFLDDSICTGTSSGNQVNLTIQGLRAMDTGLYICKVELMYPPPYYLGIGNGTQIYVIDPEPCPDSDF
Experimental: as §1

[10] = target: T10, human ICOS-hFc (homodimeric, bivalent) (human, UniProt Q9Y6W8 21-141); assay: BLI (Octet RED96), full-length IgG vs homodimeric ICOS-Fc (avid)
T10 construct: also called hICOS-Fc; hICOS-hFc; not shown: human IgG1 Fc (IgG1 backbone)
T10 sequence: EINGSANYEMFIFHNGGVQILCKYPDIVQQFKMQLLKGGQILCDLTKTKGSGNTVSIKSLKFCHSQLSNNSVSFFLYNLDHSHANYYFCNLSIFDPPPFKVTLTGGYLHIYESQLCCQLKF
Experimental: (§2) Affinity measurements were conducted using Bio-Layer Interferometry (BLI) technology (ForteBio Octet® RED96). The monovalent affinities were generated with IgG versions of the antibodies with monovalent, heterodimeric forms of the ICOS receptor. The avid affinities were generated using full-length IgGs against homodimeric forms of the ICOS receptor.

[11] = target: T10, human ICOS-hFc (homodimeric, bivalent); assay: BLI (Octet RED96), full-length IgG vs homodimeric ICOS-Fc (avid); bivalent (homodimeric) hICOS, avid; not monomeric hICOS
Experimental: as §2

[12] = target: T11, monovalent, heterodimeric human ICOS-Fc (human); assay: BLI (Octet RED96), IgG vs monovalent heterodimeric ICOS-Fc
T11 construct: Make-up of the heterodimer is not described; also called Monomeric hICOS; monomeric form of human ICOS; not shown: The human IgG1 Fc fused to ICOS, and the partner Fc chain of the heterodimer
T11 chain: T10 sequence
Experimental: as §2

[13] = target: T12, mouse ICOS-hFc (homodimeric, bivalent) (mouse; human, UniProt Q9WVS0 21-142); assay: BLI
T12 construct: also called mICOS-hFc; mouse ICOS-Fc; not shown: human IgG1 Fc (IgG1 backbone)
T12 sequence: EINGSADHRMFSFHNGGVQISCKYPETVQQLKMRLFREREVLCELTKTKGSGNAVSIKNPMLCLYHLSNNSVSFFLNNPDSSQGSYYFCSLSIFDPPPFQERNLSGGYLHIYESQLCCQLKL
Experimental: (§3) Cross-reactivity measurements were conducted using BLI technology with antibody panels being screened for binding to human, mouse, and cynomolgus ICOS-Fc fusions (homodimeric, bivalent forms).

[14] = target: T13, mouse ICOS (full length, on cells) (mouse, UniProt Q9WVS0 21-200); assay: flow cytometry on ICOS+ CHO cells
T13 construct: also called CHO-mICOS; mouse ICOS+ CHO cells
T13 sequence: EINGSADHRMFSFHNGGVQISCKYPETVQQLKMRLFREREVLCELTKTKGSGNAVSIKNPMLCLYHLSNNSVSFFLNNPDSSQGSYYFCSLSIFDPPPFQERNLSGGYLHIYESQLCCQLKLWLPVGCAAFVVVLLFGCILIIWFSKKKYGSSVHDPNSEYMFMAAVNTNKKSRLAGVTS
From the text: To assess specificity, binding to human ICOS+ CHO cells and mouse ICOS+ CHO cells was individually analyzed by flow cytometry. As a control to screen out pan-reactive antibodies, staining on CHO cells lacking ICOS receptor expression was also examined. All of the selected antibodies bound to human and mouse ICOS+ CHO cells, and not to CHO cells lacking ICOS expression.

[15] = target: T10, human ICOS-hFc (homodimeric, bivalent); assay: BLI, bivalent binding to homodimeric ICOS-Fc
Experimental: as §3

[16] = target: T14, cynomolgus ICOS-Fc (homodimeric, bivalent) (cynomolgus monkey, UniProt Q9Y6W8 21-140 (human entry)); assay: BLI, bivalent binding to homodimeric ICOS-Fc
T14 construct: also called cynoICOS-Fc; cyno ICOS-Fc; not shown: human IgG1 Fc (IgG1 backbone)
T14 chain: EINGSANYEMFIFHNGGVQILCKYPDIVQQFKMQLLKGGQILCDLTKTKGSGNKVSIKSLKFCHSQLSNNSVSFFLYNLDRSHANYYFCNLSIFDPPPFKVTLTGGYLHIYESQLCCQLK
Experimental: as §3

[17] = target: T15, monomeric form of cynomolgus monkey ICOS (cynomolgus monkey, UniProt Q9Y6W8 21-140 (human entry), limits assumed); assay: BLI (Octet RED96), monovalent, monomeric ICOS; mean ± SEM of 6 experiments
T15 chain: T14 chain
Experimental: (§4) The affinity of a humanized antibody having the variable regions of 37A10S713 for monomeric forms of ICOS from human, cynomolgus monkey and rat was measured by Bio-Layer Interferometry (BLI) technology (ForteBio Octet® RED96) and KD's are shown in Table 5. […] Functionality of binding was confirmed by assessing potency of inducing proliferation of primary CD4+ T cells isolated from each species.

[18] = target: T11, monovalent, heterodimeric human ICOS-Fc; assay: as above
Experimental: as §4

[19] = target: T16, monomeric form of rat ICOS (rat, UniProt Q9R1T7 21-145, limits assumed); assay: as above
T16 sequence: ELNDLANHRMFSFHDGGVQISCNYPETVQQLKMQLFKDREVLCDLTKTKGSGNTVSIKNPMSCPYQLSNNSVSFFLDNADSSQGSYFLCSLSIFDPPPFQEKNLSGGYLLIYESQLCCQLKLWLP
Experimental: as §4

T7 sequence (P10747 19-152): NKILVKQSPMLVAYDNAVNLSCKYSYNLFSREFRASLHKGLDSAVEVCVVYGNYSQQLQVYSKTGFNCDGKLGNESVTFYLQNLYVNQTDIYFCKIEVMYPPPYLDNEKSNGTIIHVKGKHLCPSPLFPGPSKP
T6 sequence (Q15116 25-167): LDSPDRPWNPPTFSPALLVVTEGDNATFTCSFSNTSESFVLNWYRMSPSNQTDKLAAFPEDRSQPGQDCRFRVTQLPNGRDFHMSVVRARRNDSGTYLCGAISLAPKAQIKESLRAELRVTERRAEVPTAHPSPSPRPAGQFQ

B1: 2M19 (antibody, V domains shown)
VH: EVQLQQSGAELVRSGASVKLSCTTSAFNIIDYYMHWVIQRPEQGLEWIAWIDPENGDPEYAPKFQDKATMTTDTSSNTAYLQLSSLTSEDTAVYYCTAWRGFAYWGQGTLVTVSA
VL: DVVMTQTPLSLPVSLGDQASISCRSSQSLVHSNGNTYLHWYLQKPGQSPKLLIYKVSNRFSGVPDRFSGSGSGTDFTLKISRVEAEDLGVYFCSQSIHVPPTFGGGTKLEIK
notes: Purified mouse monoclonal from a hybridoma; also called anti-ICOS mAb 2M19
[1]
  binding result: binds

B2: 35A9 (antibody, V domains shown)
VH: EVQLVESGGGLVKPGGSLKLSCAASGFTFSDYWMDWVRQAPGKGLEWVGNIDEDGSIAEYSPFVKGRFTISRDNVKNTLYLQMNSVKSEDTATYYCSRWGRFAFDSWGQGTLVTVSS
VL: DIVMTQSPSSLAVSAGDRVTINCKSSQSLLSGSFNYLTWYQQKTGQAPKLLIFYASTRHTGVPDRFMGSGSGTDFTLTINSFQTEDLGDYYCHHHYNAPPTFGPGTKLELR
notes: Armenian hamster monoclonal tested as IgG; also called hamster anti-ICOS 35A9
[2]
  binding result: no binding
[3]
  binding result: no binding
[4]
  binding result: no binding
[5]
  binding result: no binding
[6]
  binding result: no binding
[7]
  binding result: no binding
[8]
  binding result: no binding
[9]
  binding result: no binding
[10]
  koff: < 1e-07 s⁻¹
  kon: 625000 M⁻¹ s⁻¹
[11]
  Kd: < 0.001 nM
[12]
  Kd: 2.45 nM
  koff: 0.000438 s⁻¹
  kon: 178000 M⁻¹ s⁻¹
[13]
  binding result: binds
[14]
  binding result: binds
[15]
  Kd: < 0.001 nM
  koff: < 1e-07 s⁻¹
  kon: 1.01e+06 M⁻¹ s⁻¹
[16]
  Kd: < 0.001 nM
  koff: < 1e-07 s⁻¹
  kon: 740000 M⁻¹ s⁻¹

B3: 2M13 (antibody, V domains shown)
VH: EVQLQQSGAELVRPGAVVKLSCKASGFDIKDYYMHWVQQRPEQGLEWIGWIDPENGNAVYDPQFQGKASITADTSSNTAYLQLSSLTSEDTAVYYCASDYYGSKGYLDVWGAGTTVTVSS
VL: QIVLTQSPTIMSASPGEKVTITCSASSSVSYMHWFQQKPGTSPKLWIYSTSNLASGVPARFGGSRSGTSYSLTISRMEAEDAATYYCQQRSSYPFTFGSGTKLEIK
notes: Purified mouse monoclonal from a hybridoma; also called anti-ICOS antibody (2M13); anti-ICOS mAb 2M13
[1]
  binding result: binds

B4: 37A10S713 (antibody, V domains shown)
VH: EVQLVESGGGLVQPGGSLRLSCAASGFTFSDYWMDWVRQAPGKGLVWVSNIDEDGSITEYSPFVKGRFTISRDNAKNTLYLQMNSLRAEDTAVYYCTRWGRFGFDSWGQGTLVTVSS
VL: DIVMTQSPDSLAVSLGERATINCKSSQSLLSGSFNYLTWYQQKPGQPPKLLIFYASTRHTGVPDRFSGSGSGTDFTLTISSLQAEDVAVYYCHHHYNAPPTFGPGTKVDIK
notes: also called humanized antibody having the variable regions of 37A10S713; 37A10S713-hIgG1
[17]
  Kd: 0.66 nM
[18]
  Kd: 1.5 nM
[19]
  Kd: 7.2 nM
